Data taken from patent publication US9828595B2, “Thermostable asparaginase variants and polynucleotides encoding same” (Novozymes A/S, priority 2012, dated 2017).
Positions count from the first letter of the chain named. Numbers in names are those of the source. Values belong to the molecule of their own block, whether it stands above or below them.

How the values were obtained:
[1] = target: T1, Aspergillus niger asparaginase, wild type, SEQ ID NO: 10 (Aspergillus niger, UniProt A2QBE5); assay: Effect of xylitol on asparaginase activity, A. niger wt; type: biochemical; conditions: buffer 70.8 g + 29.2 g xylitol, pH 6, 37° C.; activity in buffer without xylitol = 100%
T1 construct: enzyme preparation tested in Nessler assay
T1 sequence (A2QBE5 18-378): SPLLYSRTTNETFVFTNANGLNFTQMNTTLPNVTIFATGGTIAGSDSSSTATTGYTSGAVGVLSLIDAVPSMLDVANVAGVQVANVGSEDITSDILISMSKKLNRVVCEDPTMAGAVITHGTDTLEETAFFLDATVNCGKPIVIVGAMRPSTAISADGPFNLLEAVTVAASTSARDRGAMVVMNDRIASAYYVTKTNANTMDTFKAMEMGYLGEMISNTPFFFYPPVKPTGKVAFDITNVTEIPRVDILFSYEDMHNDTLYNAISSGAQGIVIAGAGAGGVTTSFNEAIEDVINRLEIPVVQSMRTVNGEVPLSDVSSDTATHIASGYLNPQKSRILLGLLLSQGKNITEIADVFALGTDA
Method: (§1) Example 13: Asparaginase Activity Assay—Used in Example 14
(§2) Asparaginase hydrolyses asparagine to aspartic acid and ammonium. Produced ammonium is determined using Nessler's reagent.
(§3) Activity is determined relative to a standard of known activity in ASNU or to a relevant control sample. Activity as determined according to this assay is referred to as nASNU.
(§4) Mix buffer and asparagine and let it equilibrate at 37° C. for 10-15 min. Add enzyme standard or sample and incubate for 10 min at 37° C. Add TCA to stop the reaction.
(§5) Ammonium Determination (Nessler Assay)
(§6) Milli-Q water, sample and Nessler's reagent is added to the microtiter plate. Shake for 10 sec and then leave to incubate for 10 min before shaking again and reading at 440 nm.
(§7) Example 14: Testing the Effect of NaCl and Xylitol on Enzyme Activity
(§8) To test the effect of NaCl or xylitol on asparaginase activity, the compounds were added directly to the buffer and asparaginase activity measured using the standard assay described in Example 13. NaCl was tested in two concentrations and xylitol in one.
(§9) Buffer: 20 mM citric acid buffer, pH 6, 0.001% triton X100:
(§10) Xylitol: 70.8 g buffer+29.2 g xylitol
(§11) The measured activity in the presence of either NaCl or xylitol was compared to the activity in buffer without NaCl and xylitol (set as 100%).

[2] = target: T2, Aspergillus oryzae asparaginase, wild type (Wt enzyme), SEQ ID NO: 2 (Aspergillus oryzae, UniProt Q2URI4); assay: Effect of xylitol on asparaginase activity, Wt enzyme; type: biochemical; conditions: buffer 70.8 g + 29.2 g xylitol, pH 6, 37° C.; activity in buffer without xylitol = 100%
T2 construct: Nessler assay with xylitol or NaCl
Method: as §1, §2, §3, §4, §5, §6, §7, §8, §9, §10, §11

[3] = substrate: NC(=O)C[C@H](N)C(=O)O; assay: Km and kcat determination, WT; type: biochemical, Aspergillus oryzae; conditions: other: L-asparagine 0.22-26.6 mM, pH 5.0, 50° C., 10 min
Method: (§12) Example 15: Km and Kcat Determination
(§13) Purified enzyme was diluted with 20 mM sodium acetate buffer pH 5.5 to a solution of a specified activity around 2 rASNU/ml. Ten microliters of enzyme solution was added to 100 microL of preincubated substrate solution containing L-asparagine in different concentration (0.22-26.6 mM) constructed by dissolving L-asparagine monohydrate in 100 mM sodium acetate buffer pH 5.0 including 0.02% TritonX-100. After 10 min incubation at 50° C., the amount of generated ammonia in the reaction mixture was measured by using Ammonia Test Kit (Wako Pure Chemicals, Japan) following the package insert protocol. The Km and Vmax were determined from Michaelis-Menten equation, and kcat was calculated using Vmax.

[4] = substrate: NC(=O)C[C@H](N)C(=O)O; assay: Km and kcat determination, JN161; type: biochemical, Aspergillus oryzae; conditions: other: L-asparagine 0.22-26.6 mM, pH 5.0, 50° C., 10 min
Method: as §12, §13

[5] = substrate: NC(=O)C[C@H](N)C(=O)O; assay: Km and kcat determination, JN181; type: biochemical, Aspergillus oryzae; conditions: other: L-asparagine 0.22-26.6 mM, pH 5.0, 50° C., 10 min
Method: as §12, §13

[6] = substrate: NC(=O)C[C@H](N)C(=O)O; assay: Km and kcat determination, JN180; type: biochemical, Aspergillus oryzae; conditions: other: L-asparagine 0.22-26.6 mM, pH 5.0, 50° C., 10 min
Method: as §12, §13

[7] = substrate: NC(=O)C[C@H](N)C(=O)O; assay: Km and kcat determination, JN167; type: biochemical, Aspergillus oryzae; conditions: other: L-asparagine 0.22-26.6 mM, pH 5.0, 50° C., 10 min
Method: as §12, §13

[8] = substrate: NC(=O)C[C@H](N)C(=O)O; assay: Km and kcat determination, JN178; type: biochemical, Aspergillus oryzae; conditions: other: L-asparagine 0.22-26.6 mM, pH 5.0, 50° C., 10 min
Method: as §12, §13

[9] = substrate: NC(=O)C[C@H](N)C(=O)O; assay: Km and kcat determination, JN182; type: biochemical, Aspergillus oryzae; conditions: other: L-asparagine 0.22-26.6 mM, pH 5.0, 50° C., 10 min
Method: as §12, §13

[10] = substrate: NC(=O)C[C@H](N)C(=O)O; assay: Km and kcat determination, JN183; type: biochemical, Aspergillus oryzae; conditions: other: L-asparagine 0.22-26.6 mM, pH 5.0, 50° C., 10 min
Method: as §12, §13

% activity xylitol [1]: 176%
% activity xylitol [2]: 158%
Molecule: OC[C@@H](O)[C@H](O)[C@@H](O)CO [xylitol]

B1: Aspergillus oryzae asparaginase, wild type (WT), SEQ ID NO: 2 (Aspergillus oryzae RIB40) (protein)
chain: ATDSNVTYVFTNPNGLNFTQMNTTLPNVTIFATGGTIAGSSADNTATTGYKAGAVGIQTLIDAVPEMLNVANVAGVQVTNVGSPDITSDILLRLSKQINEVVCNDPTMAGAVVTHGTDTLEESAFFLDATVNCRKPVVIVGAMRPSTAISADGPLNLLQSVTVAASPKARDRGALIVMNDRIVSAFYASKTNANTVDTFKAIEMGNLGEVVSNKPYFFYPPVKPTGKTEVDIRNITSIPRVDILYSYEDMHNDTLYSAIDNGAKGIVIAGSGSGSVSTPFSAAMEDITTKHNIPIVASTRTGNGEVPSSAESSQIASGYLNPAKSRVLLGLLLAQGKSIEEMRAVFERIGVA
notes: purified
Km [3]: 950 µM
kcat [3]: 121 s⁻¹

B2: Aspergillus oryzae asparaginase variant JN161: JN070 (N70K S307A A323R T327V A349Q S351A V353I, SEQ ID NO: 4) with K122A P241E K290V S299A S338W (Aspergillus … (protein)
chain: ATDSNVTYVFTNPNGLNFTQMNTTLPNVTIFATGGTIAGSSADKTATTGYKAGAVGIQTLIDAVPEMLNVANVAGVQVTNVGSPDITSDILLRLSAQINEVVCNDPTMAGAVVTHGTDTLEESAFFLDATVNCRKPVVIVGAMRPSTAISADGPLNLLQSVTVAASPKARDRGALIVMNDRIVSAFYASKTNANTVDTFKAIEMGNLGEVVSNKEYFFYPPVKPTGKTEVDIRNITSIPRVDILYSYEDMHNDTLYSAIDNGAVGIVIAGSGAGSVSTPFAAAMEDITTKHNIPIVRSTRVGNGEVPSSAEWSQIASGYLNPQKARILLGLLLAQGKSIEEMRAVFERIGVA
notes: purified; expressed in Aspergillus
Km [4]: 690 µM
kcat [4]: 172 s⁻¹

B3: Aspergillus oryzae asparaginase variant JN181: JN070 (N70K S307A A323R T327V A349Q S351A V353I, SEQ ID NO: 4) with K122A K240R P241E K253R S299A S334P E337S … (protein)
chain: B2 chain with K214R, K227R, V264K, S308P, E311S, W312S
notes: as for B2
Km [5]: 580 µM
kcat [5]: 138 s⁻¹

B4: Aspergillus oryzae asparaginase variant JN180: JN070 (N70K S307A A323R T327V A349Q S351A V353I, SEQ ID NO: 4) with K122A K240R P241E S299A S334P E337S … (protein)
chain: B2 chain with K214R, V264K, S308P, E311S, W312S
notes: as for B2
Km [6]: 830 µM
kcat [6]: 185 s⁻¹

B5: Aspergillus oryzae asparaginase variant JN167: JN070 (N70K S307A A323R T327V A349Q S351A V353I, SEQ ID NO: 4) with K122A P241E S299A S334P (Aspergillus oryzae … (protein)
chain: B2 chain with V264K, S308P, W312S
notes: as for B2
Km [7]: 670 µM
kcat [7]: 127 s⁻¹

B6: Aspergillus oryzae asparaginase variant JN178: JN070 (N70K S307A A323R T327V A349Q S351A V353I, SEQ ID NO: 4) with K122A K240R P241E S299A S334P (Aspergillus … (protein)
chain: B2 chain with K214R, V264K, S308P, W312S
notes: as for B2
Km [8]: 880 µM
kcat [8]: 127 s⁻¹

B7: Aspergillus oryzae asparaginase variant JN182: JN070 (N70K S307A A323R T327V A349Q S351A V353I, SEQ ID NO: 4) with K122A P241E S299A S334P E337S (Aspergillus … (protein)
chain: B2 chain with V264K, S308P, E311S, W312S
notes: as for B2
Km [9]: 910 µM
kcat [9]: 186 s⁻¹

B8: Aspergillus oryzae asparaginase variant JN183: JN070 (N70K S307A A323R T327V A349Q S351A V353I, SEQ ID NO: 4) with K122A P241E S299A S334P S338W (Aspergillus … (protein)
chain: B2 chain with V264K, S308P
notes: as for B2
Km [10]: 910 µM
kcat [10]: 189 s⁻¹
